The values that follow come from publication PMC5378476, “Mechanism of ribosome rescue by ArfA and RF2” (eLife, 2017).

The assay deals with T1, release factor RF2 (E. coli K12, UniProt P07012 1-365).
T1 construct: Peptide chain release factor RF2, E. coli K12 strain; SPF motif at 205-207, GGQ motif at 250-252, switch loop aa 315-323; source: purified as described (Korostelev et al., 2008; Laurberg et al., 2008)
T1 sequence: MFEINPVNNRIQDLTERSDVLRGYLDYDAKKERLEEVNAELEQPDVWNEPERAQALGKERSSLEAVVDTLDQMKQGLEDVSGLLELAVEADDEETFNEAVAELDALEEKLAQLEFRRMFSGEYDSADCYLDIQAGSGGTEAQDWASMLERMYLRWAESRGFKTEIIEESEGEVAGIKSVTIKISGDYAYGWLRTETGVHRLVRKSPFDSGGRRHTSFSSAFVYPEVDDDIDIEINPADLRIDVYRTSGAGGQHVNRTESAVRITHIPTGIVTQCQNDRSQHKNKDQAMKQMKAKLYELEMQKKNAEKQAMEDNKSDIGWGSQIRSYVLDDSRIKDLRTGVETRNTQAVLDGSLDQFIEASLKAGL
Kind of assay: cryo-EM structure; 70S•mRNA•tRNAfMet•ArfA•RF2 complex reconstituted in vitro from 30S and 50S subunits, mRNA truncated after the P-site AUG; 20 mM Tris-HCl pH 7.0, 100 mM NH4Cl, 20 mM MgCl2, 0.5 mM EDTA, 6 mM βME; on grids ~0.45 µM 70S, 10 µM ArfA, 10 µM RF2; two classes (Structure I, compact RF2; Structure II, extended RF2) from one dataset. The following applies: both partners purified.

B1: ArfA (alternative rescue factor A) (natural protein, E. coli, UniProt P36675 1-60, looked up)
chain: MSRYQHTKGQIKDNAIEALLHDPLFRQRVEKNKKGKGSYMRKGKHGNRGNWEASGKKVNH
notes: ArfA, E. coli, gene from the ASKA Clone(-) library; the forward primer starts at the first ATG of the gene after the His6 codons, the reverse primer ends at the codon of residue 60; The natural protein is longer than 60 residues; the construct is cut short at the C-terminus; No density for the His6 tag in the maps; source: E. coli BLR/DE3, pET24b+, purified (Ni-NTA, ion exchange, size exclusion); …
Take B1: the binding result is on record as “binds”.
